Here are results for twelve molecules from patent US20230303695A1 (SHANGHAI XBH BIOTECHNOLOGY, published 2023).

Positions count from the first letter of the chain named. In names and notes the source's numbering stands.

In this experiment the target is T1, recombinant human IGSF8 extracellular domain tagged by a human Fc region (IGSF8-hFc) (human, UniProt Q969P0 28-579, biotin label in Examples 17, 18 and 28 (site not given)).
T1 construct: also called IGSF8-Fc fusion protein; IGSF8-hFc-biotin; not shown: human Fc region
T1 sequence: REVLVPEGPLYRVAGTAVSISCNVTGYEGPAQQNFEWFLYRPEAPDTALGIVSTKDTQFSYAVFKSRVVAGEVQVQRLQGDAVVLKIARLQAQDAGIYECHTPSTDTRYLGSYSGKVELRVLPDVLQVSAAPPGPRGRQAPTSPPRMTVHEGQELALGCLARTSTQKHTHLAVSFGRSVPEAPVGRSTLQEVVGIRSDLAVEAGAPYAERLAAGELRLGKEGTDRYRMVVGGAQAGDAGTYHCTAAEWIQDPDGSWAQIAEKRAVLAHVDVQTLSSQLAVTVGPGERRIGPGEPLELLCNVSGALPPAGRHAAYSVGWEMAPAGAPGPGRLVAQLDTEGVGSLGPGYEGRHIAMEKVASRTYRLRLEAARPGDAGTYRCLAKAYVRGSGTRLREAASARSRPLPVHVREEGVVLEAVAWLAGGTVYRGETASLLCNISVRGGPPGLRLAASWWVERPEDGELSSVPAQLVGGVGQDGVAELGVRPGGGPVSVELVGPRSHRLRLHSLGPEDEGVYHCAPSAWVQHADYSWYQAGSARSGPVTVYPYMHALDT
As to the kind of experiment: SPR, Ab captured. Here is the method: The binding affinities of the L1 and L2 antibodies to IGSF8 recombinant protein were determined by surface plasmon resonance (SPR). Briefly, anti-human Fab antibody was imobilized on acarboxyl-derivatized SPR chip surface, and the antibodies were captured on the resulting surface at 5 μg/ml for 30 seconds.

B1: L1-14 (antibody, V domains shown)
VH: QVQLVESGGGVVQPGRSLRLSCAASGFTFSTYGMHWVRQAPGKGLEWVAVIWDDGSYKYYGDSVKGRFTISRDNSKNTLYLQMNSLRAEDTAVYYCARDGSGWGYAFDIWGQGTMVTVSS
VL: DIQLTQSPSSLSASVGDRVTITCQASQDISEYLNWYQHKPGKAPNPLVFSQPNLETGVPPRFSATGSGTDFSLTITSLQPEDFATYYCQQYDSFPYTFGQGTRLDIK
For B1, the Kd turned out to be 6.41 nM, the koff was 0.00244 s⁻¹ and the kon is 381000 M⁻¹ s⁻¹.

B2: L1-17 (antibody, V domains shown)
VH: B1 VH with M115L
VL: DIQMTQSPSSLSASVGDRVTITCQASQDIGPWLNWYQQKPGKAPKLLIYDAPNLETGVPSRFSGSGSGTDFTFTISSLQPEDIATYYCQQYDSFPYTFGQGTKVEIK
With B2, the Kd turned out to be 3.78 nM, the koff worked out at 0.0012 s⁻¹ and the kon is 318000 M⁻¹ s⁻¹.

B3: L1-16 (antibody, V domains shown)
VH: B1 VH with M115L
VL: B2 VL with D50G, A51S
B3: the Kd came to 3.33 nM, the koff is 0.00111 s⁻¹ and the kon turned out to be 333000 M⁻¹ s⁻¹.

B4: L1-15 (antibody, V domains shown)
VH: B1 VH
VL: B1 VL with S30M, E31K, Y32T, S50D, Q51A, P52A
In the case of B4, the dissociation constant Kd amounted to 4.28 nM, the koff stood at 0.00155 s⁻¹ and the association rate constant (kon) came to 362000 M⁻¹ s⁻¹.

B5: L1VL-Q24H (antibody, V domains shown)
VH: B1 VH
VL: B1 VL with Q24H, S50D, Q51A, P52A
As to B5, the Kd was 144 nM, the koff came to 0.00775 s⁻¹ and the kon came out at 53700 M⁻¹ s⁻¹.

B6: L1VH-D53Y (antibody, V domains shown)
VH: B1 VH with D53Y
VL: B1 VL with S50D, Q51A, P52A
As to B6, the Kd turned out to be 365 nM, the koff came out at 0.0168 s⁻¹ and the association rate constant (kon) is 46100 M⁻¹ s⁻¹.

B7: L1VH-D54T (antibody, V domains shown)
VH: B1 VH with D54T
VL: B1 VL with S50D, Q51A, P52A
B7: the Kd was found to be 571 nM, the koff was found to be 0.00131 s⁻¹ and the kon turned out to be 2290 M⁻¹ s⁻¹.

B8: L1VL-V48D (antibody, V domains shown)
VH: B1 VH
VL: B1 VL with V48D, S50D, Q51A, P52A
For B8, the Kd stood at 708 nM, the koff was found to be 0.023 s⁻¹ and the association rate constant (kon) is 32400 M⁻¹ s⁻¹.

B9: L1VH-D99N (antibody, V domains shown)
VH: B1 VH with D99N
VL: B1 VL with S50D, Q51A, P52A
With B9, the equilibrium dissociation constant (Kd) came to 138 nM, the koff is 0.00246 s⁻¹ and the kon was 17800 M⁻¹ s⁻¹.

B10: L1VL-P46L (antibody, V domains shown)
VH: B1 VH
VL: B1 VL with P46L, S50D, Q51A, P52A
B10: the dissociation constant (Kd) was 124 nM, the koff was found to be 0.00341 s⁻¹ and the kon was 27500 M⁻¹ s⁻¹.

B11: L1VH-W52L (antibody, V domains shown)
VH: B1 VH with W52L
VL: B1 VL with S50D, Q51A, P52A
notes: mutant of the L1 antibody
Regarding B11, the Kd came out at 855 nM, the koff is 0.0165 s⁻¹ and the kon stood at 19300 M⁻¹ s⁻¹.

B12: L1VL-Y91F (antibody, V domains shown)
VH: B1 VH
VL: B1 VL with S50D, Q51A, P52A, Y91F
As for B12, the Kd amounted to 321 nM, the koff worked out at 0.00145 s⁻¹ and the on-rate constant (kon) was found to be 4500 M⁻¹ s⁻¹.
